Data as given in the supplement of paper PMC9170038.

Tests used:
MS2 coat protein [1] = assay: apparent KD of MS2 coat protein; designed switch direction (-1 OFF switch, 1 ON switch): 1; higher = weaker reporter binding
In short: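 Transcription of designed RNA switches on Illumina chips was done by stalled E. coli RNA polymerase. SNAP-549-labelled MS2 coat protein was then titrated in doubling steps from 0.7 or 1.5 nM to 3 µM, with steps of 0.8–1.5 h at the lowest and 10–20 min at the highest concentration. The per-design median over clusters of curve-fitted normalised fluorescence is reported as apparent KD.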

MS2 coat protein [2] = assay: apparent KD of MS2 coat protein; higher = weaker reporter binding; conditions: Eterna round: R107
In short: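 SNAP-549-labelled MS2 coat protein was titrated onto designed RNA switches that had been transcribed on-chip from Illumina sequencing clusters. Amounts doubled from 0.7 or 1.5 nM to 3 µM in 100 mM Tris-HCl pH 7.5, 80 mM KCl, 4 mM MgCl2, with constant ligand or without. Apparent KD is the median per design of normalised cluster binding-curve fits.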

[3] = input ligand: microRNA oligo, concentration not stated
[4] = input ligand: theophylline 20 uM
[5] = input ligand: theophylline 2 mM
[6] = input ligand: tryptophan 2.4 mM

Row | Sequence | apparent KD of MS2 coat protein (MS2 coat protein [2]; input ligand: arginine 13.2 mM) | apparent KD of MS2 coat protein (MS2 coat protein [2]; [4]) | apparent KD of MS2 coat protein (MS2 coat protein [2]; [5]) | apparent KD of MS2 coat protein (MS2 coat protein [2]; [6]) | apparent KD of MS2 coat protein (MS2 coat protein [2]; input ligand: none) | other results
1 | UGUCCAGCCUGAGCUGGACAAAAGCAUGUACAUGAGGAUCACCCAUGUUCAUGUACAAGCUUUUUGCUCGUCUUAUG [salish99_208a_r3_052] (puzzle: Sensor for hsa-mir-208a) |  |  |  |  |  | apparent KD of MS2 coat protein (MS2 coat protein [1]; Eterna round: R95, input ligand: FMN 200 uM): 517 nM; apparent KD of MS2 coat protein (MS2 coat protein [1]; Eterna round: R95, input ligand: microRNA oligo, concentration not stated): 16.4 nM; apparent KD of MS2 coat protein (MS2 coat protein [1]; Eterna round: R95, input ligand: none): 655 nM
2 | UGUUGUAUUACAGGAUAUCUAUUAGUUUUAUAUAGAGAAGGGUAUUCACAUGAGGAUCACCCAUGUAUAUACGAGGAAGUUGUG [JMF's solution 100] (Eterna round: R96, puzzle: Same State NG 1) |  |  |  |  |  | apparent KD of MS2 coat protein (MS2 coat protein [1]; [3]): 36.8 nM
3 | GGUAGGUUACUACCAAACAUGAGGAUCACCCAUGUAAGUGGGAAGGAUAUGGUACCUUUUAGGUACCAGAAGGUCCAUAUAUUU [JL Fiskers NG3ss - 2 mod 8] (Eterna round: R96, puzzle: Same State NG 3) |  |  |  |  |  | apparent KD of MS2 coat protein (MS2 coat protein [1]; input ligand: FMN 200 uM): 231 nM; apparent KD of MS2 coat protein (MS2 coat protein [1]; [3]): 847 nM; apparent KD of MS2 coat protein (MS2 coat protein [1]; input ligand: none): 1140 nM
4 | AUUAUUUAUGCAGGAUAUGAUUAACAUGAGGAUCACCCAUGUGGUGUUGUGAGUAAGGAGAGUGAUCAGAAGGGCAAUUUUUUU [JMF's solution 42] (Eterna round: R96, puzzle: Same State NG 2) |  |  |  |  |  | apparent KD of MS2 coat protein (MS2 coat protein [1]; input ligand: FMN 200 uM): 709 nM; apparent KD of MS2 coat protein (MS2 coat protein [1]; [3]): 387 nM; apparent KD of MS2 coat protein (MS2 coat protein [1]; input ligand: none): 375 nM
5 | GAGUGGAGGAGAGGAUAUACAAUGAUAAUCACUGUAGAAGGUUCUAACAUGAGGAUCACCCAUGUAGGACUAUUCCUGAGAGUU [Parity 51 - Jieux - Same State NG 1] (Eterna round: R96, puzzle: Same State NG 1) |  |  |  |  |  | apparent KD of MS2 coat protein (MS2 coat protein [1]; [3]): 9.46 nM
6 | GUGCUGGUAUCGGCCGCCACUGUAACAUGACAUCCCAGGGCCGACAUGAGGAUCACCCAUGUUAACAGGACCGGGAUAUCAACGA [Riorquen] | 13.2 nM | 28.9 nM | 19.5 nM |  |  | 
7 | ACGUUGAAGUCGGCCGCCACUGAUUUCAUGUUCAACAUGAGGAUCACCCAUGUACCUUAUGUUAACAGGACCGGGACGUAUACGA [JR_SSTryptoB_Sub002] | 264 nM | 341 nM | 551 nM |  |  | 
8 | UGUAUGUGAAGUGAUACCAGUCCAUAAACUGGAACAUGAGGAUCACCCAUGUAAUGGGUGGACCCUUGGCAGCACUUCUCAUACU [First try] | 48 nM | 468 nM |  | 190 nM |  | 
9 | UGGUGUAGGGUAAAUAGGCUGAGUACAGAAGGAGCGCGAAUAAACGCAGGUAGGUCGCUGGACUCCACAUGAGGAUCACCCAUGU [Same State Arginine A GF 28] | 35.5 nM | 34.1 nM | 23.3 nM | 36.4 nM | 28.4 nM | 
10 | AUUAAGAAUAUGUAGACGGCGGAGAAGAGACGAGGACCGGUACGGCCGCCACUCGUGUUAGUUAACAUGAGGAUCACCCAUGUUA [#08 Tryptophan A Same State] | 11.9 nM | 14.1 nM | 12.6 nM | 11.8 nM | 12.1 nM | 
11 | AGCCGAAACCUUGAUACCAGAUCAUGCUGCACAUGAGGAUCACCCAUGUCGUUAAACAUGGUCCCUUGGCAGCAAGUUAGGAUCU [Usustiusso] | 114 nM | 161 nM |  | 103 nM |  | 
12 | AUGUCGUUGAAUAUAGCGGCUUGGUGUGAUACCAGAAUGAUCAAAUUCCCUUGGCAGCAUUACAUGAGGAUCACCCAUGUUUAGG [SSTheo A #18] | 18.6 nM | 30.2 nM |  | 29.3 nM |  | 
13 | GGCACAUAGUCGGCCGCCACUAGUGGGAAAUGGGAGAACAUGAGGAUCACCCAUGUAUAAUAGCCUAGGACCGGGACUAUGUGCC [Elk] | 64.2 nM | 227 nM | 113 nM | 55.3 nM | 188 nM | 
14 | GGACUAACCAGAAGGAGCGACACAAAGCAGAAACUGCAUCCUCCGCACGAGGAUCACCCGUGUCAGGUAGGUCGCUGGUUAGUCG [ArgBX 28] | 54 nM | 57 nM | 50.4 nM | 41.7 nM | 50.2 nM | 
15 | AGAUGAGUCACGGCCGCCACUCACUUCAGGUUCACCCUUGGUUAACAUGAGGAUCACCCAUGUGGGAGGACCGGGUGAUGAGCAU [XTryp B #3] | 11.8 nM | 23.8 nM | 25.3 nM |  |  | 
16 | ACACAUGAGGGAAGGAGCGCCAUGAACACACAUGAGGAUCACCCAUGUUUUUUUUGUGUUUGGCAGGUAGGUCGCCCACAUGAGG [Same State Arginine B 2] | 7.38 nM | 22.5 nM | 9.33 nM | 7.57 nM | 10.1 nM | 
17 | CACGAUUUGUCGGCCGCCACUAAGGUAACUCUUCUCACAUGAGGAUCACCCAUGUGCCCGAAGCUUAGGACCGGGAUAAUGGGUG [Dieson] | 32.3 nM | 150 nM | 288 nM |  |  | 

Row | Sequence | apparent KD of MS2 coat protein (MS2 coat protein [2]; input ligand: arginine 13.2 mM) | apparent KD of MS2 coat protein (MS2 coat protein [2]; [4]) | apparent KD of MS2 coat protein (MS2 coat protein [2]; [5]) | apparent KD of MS2 coat protein (MS2 coat protein [2]; [6]) | apparent KD of MS2 coat protein (MS2 coat protein [2]; input ligand: none) | other results
18 | AUCGGGCCUUUAGAACCGCCGUUCCCACCUCGAGGACCGGUACGGCCGCCACUCGGGUGACAUGAGGAUCACCCAUGUGGACGAA [Gexebidive] | 31 nM | 432 nM | 737 nM | 284 nM | 181 nM | 
19 | GGAGGUGAGAGAAGGAGCGGAAGUUUCGUUACAACAUGAGGAUCACCCAUGUAACGUUUAGUCCAGGUAGGUCGCUCUCGGGCGG [jbbgmullin] | 19.2 nM | 25.2 nM | 30.7 nM | 26.9 nM | 16.3 nM | 
20 | AGACAUGAGGAUCACCCAUGUAGCAUGGAUACCAGAUGUAGAUUUGUCCCUUGGCAGCUGUGGUAAAGUGAUGCAUUGCUCCUAG [Exclusion - Theophylline A (Freestyle 4)] | 34.4 nM | 61.5 nM |  | 33.3 nM |  | 
21 | GGCUGUUGCGAUUUGAAGCGGCAGCGUGAUACCAGAUGUAAGAGCGUCCCUUGGCAGCACGUUUACAUGAGGAUCACCCAUGUCA [Xerema] | 56.6 nM | 123 nM |  | 192 nM |  | 
22 | GCGUUGGUCGGAAGGAGCGACAUGAGGAUCACCCAUGUCUCCCGUUAUGGGAGUUCCUUAGGUCAGGUAGGUCGCCGACUGACGC [#1 Exclusion - Arginine B Attempt #20 (Inspired by Omei)] | 96.1 nM | 193 nM | 150 nM | 143 nM | 209 nM | 
23 | GGGUGCGGCACGGCCGCCACUGCGGUGGUGUGACAUGAGGAUCACCCAUGUUGUCAUGCGGCCCUUAGGACCGGGUGGCGUGCCU [#1 Exclusion - Tryptophan B Attempt #15 (HarryS)] | 5.27 nM | 31.2 nM | 89.5 nM | 38 nM | 24.1 nM | 
24 | AAAACAUGAGGAUCACCCAUGUACAUGGGUCGAGGACCGGUACGGCCGCCACUCGCCGCCCGCCCGCCCGCCACCUCUCCCGCCC | 34.7 nM | 173 nM | 160 nM |  |  | 
25 | GAGCUCGUGGACUGGCGUGCUCCGCUCCGUCGAGGACCGGUACGGCCGCCACUCGACAUGAGGAUCACCCAUGUGUGAGCUCGCG [#1 Exclusion - Tryptophan A Attempt #20 (HarryS)] | 35.3 nM | 193 nM | 134 nM |  |  | 
26 | UUUUACGGCGAUCUGGGUUUACCAGAUCGGCGAGGACCGGUACGGCCGCCACUCGUGUUUCUUUAACAUGAGGAUCACCCAUGUA [SSTA #1] | 32.4 nM | 77.3 nM | 50.9 nM | 16 nM | 38.4 nM | 
27 | CGAUAUAUAGCGGCCGCCACUUACUCAUGAGGUAACAACAUGAGGAUCACCCAUGUUUGAGGAUCAAGGACCGGGCUAUGUAUCG [AstrosSSTryB#14] | 24.9 nM | 32 nM | 29.4 nM |  |  | 
28 | ACGUCCGGAUUAAUCGUGGGCAUGGUCGAUACCAGUAUUUUAAUCUACCCUUGGCAGCGACAUGAGGAUCACCCAUGUGCGAUGA [XTheo A #18] | 14.3 nM | 23 nM |  | 16.9 nM |  | 
29 | AUUAUAGUUUAUAACGAAGUUGAUACAGAAGGAGCGGGAGUAAUCUCAGGUAGGUCGCUGAUAAUACAUGAGGAUCACCCAUGUG [#15 Same State - Arginine A] | 17.1 nM | 19.4 nM | 24.7 nM | 18.9 nM | 19 nM | 
30 | ACAUGAGGAUCACCCAUGUCACGGCACGAUACCAGCUGAUCCGGUGGCCCUUGGCAGCGUCACGUUUGGUCCCGCGGAUGACACG [klmmullin] | 29.4 nM | 89.6 nM |  | 65.5 nM |  | 
31 | CUCAUCCACGCGGCCGCCACUAUUUUUAGGUGUGGGUGUGACGUAUUACAUGAGGAUCACCCAUGUAGGACCGGGCGUGGAUGAG [Walrus] | 117 nM | 414 nM | 491 nM |  |  | 
32 | UGGUCCGGCGGAAGGAGCGACAUGAGGAUCACCCAUGUCUCCCGUUAUGGGAGUUCUUUAGGUCAGGUAGGUCGCCGGCGGGUCA [#1 Exclusion - Arginine B Attempt #11 (Inspired by Omei)] | 196 nM | 80.6 nM | 221 nM | 62.9 nM | 51.6 nM | 
33 | GUACAUGAGGAUCACCCAUGUAUAGUUGAAGGAGCGACCAGAGGGUCAGGUAGGUCGCAGCACAUGAGGUAAGGCCGUGUAUGCU [#1 Exclusion - Arginine A Attempt #20 (Inspired by Pi)] | 17.2 nM | 23.9 nM | 21.7 nM | 16.8 nM | 15.2 nM | 
34 | AUAUUUAACGGAAGGAGCGGGAAAUAAUCAUGAUGACAUGAGGAUCACCCAUGUCUUAAAACCCAGGUAGGUCGCCGAAUAAUAA [Same State - Arginine B] | 12.1 nM | 14.5 nM | 13 nM | 11.7 nM | 11.1 nM | 
